Common to all, as to settings: chain copies: 2
Series [1] has as its target T1, Mos-1 transposase ET (Drosophila mauritiana, UniProt Q7JQ07 SEQ:1-345, E137K,T216A).
T1 sequence: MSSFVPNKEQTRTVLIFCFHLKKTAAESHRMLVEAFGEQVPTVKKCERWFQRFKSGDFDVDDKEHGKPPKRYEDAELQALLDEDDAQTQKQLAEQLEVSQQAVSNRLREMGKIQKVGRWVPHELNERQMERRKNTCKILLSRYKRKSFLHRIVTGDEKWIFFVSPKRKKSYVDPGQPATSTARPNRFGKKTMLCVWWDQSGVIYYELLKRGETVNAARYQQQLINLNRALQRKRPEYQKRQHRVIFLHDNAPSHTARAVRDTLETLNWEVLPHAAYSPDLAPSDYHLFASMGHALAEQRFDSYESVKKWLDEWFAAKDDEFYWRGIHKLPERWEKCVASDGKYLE
In words: cell_activity; 3T40 transposition in E. coli T5 vs 3T3/WT. The protocol: (§1) Escherichia coli JM109 bacteria were co-transformed with the pBC 3T3 plasmid (comprising a transposition reporter 2 ITR 3′ mariner-like element and the chloramphenicol resistance gene) and with the inducible vector encoding for the transposase (pKK-Tnp or pMal-Tnp) comprising the ampicillin resistance gene. The bacteria selection was performed on ampicillin (100 μg/ml) and chloramphenicol in order to verify the presence of the two plasmids.
(§2) The JM109 bacteria containing both the pBC 3T3 plasmid and the pKK-Tnp (or pMalC2X-Tnp) plasmid were placed in culture for 1 hr at 37° C. in 250 μl of LB. This inoculum was then poured into 5 ml of LB supplemented with 1 mM IPTG. The culture was titrated on LB plates (100 μl of a 1/1000 dilution) and on LB-Tet plates (12.5 μg/ml) (250 μl of the non-diluted culture). The culture induced by IPTG was then cultured for 5 hours at 32° C. (optimal temperature of transposase) under stirring (250 rpm). The bacterial suspension was then titrated on LB plates (100 μl of a 1/250,000 dilution) and on LB-tet plates (100 μl of the undiluted bacterial suspension). The plates were placed at 37° C. overnight. The following day, the colonies were counted on LB and LB-Tet plates, and the transposition frequency (equal to the number of tetracycline bacteria over the number of bacterial per 1 ml of undiluted bacterial suspension) was calculated.
(§3) In order to evaluate the transposition efficiency of systems associating a hyperactive transposase and a pseudo-transposon that is also hyperactive, various combinations were tested in the transposition test in bacteria described in part I, paragraph I-B above.

The target in a further series is T2, Mos-1 transposase QY (Drosophila mauritiana, UniProt Q7JQ07 SEQ:1-345, Q91R,Y237C).
T2 sequence: T1 sequence with Q91R, K137E, A216T, Y237C
The description is as above. The protocol:
as §1, §2, §3

The target in series [2] is T1, Mos-1 transposase ET. Description: cell_activity; 3T46 transposition in E. coli T5 vs 3T3/WT. The protocol:
as §1, §2, §3

The next series concerns the target T3, Mos-1 transposase FTY (Drosophila mauritiana, UniProt Q7JQ07 SEQ:1-345, F53Y,T216A,Y237C).
T3 sequence: T1 sequence with F53Y, K137E, Y237C
The series is described as above. The protocol:
as §1, §2, §3

The next series deals with T4, Mos-1 transposase FQET (Drosophila mauritiana, UniProt Q7JQ07 SEQ:1-345, F53Y,Q91R,E137K,T216A).
T4 sequence: T1 sequence with F53Y, Q91R
Described as above. Here is the method:
as §1, §2, §3

In the next series the target is T5, Mos-1 transposase FQETY (Drosophila mauritiana, UniProt Q7JQ07 SEQ:1-345, F53Y,Q91R,E137K,T216A,Y237C).
T5 sequence: T1 sequence with F53Y, Q91R, Y237C
The series is described as above. Here is the method:
as §1, §2, §3

Where a chain is given by its changes, count along the chain named.

B1: ITR40 (dsDNA)
DNA 1: TCAGGTGTACAAGTATGTAATGTCGTTA
DNA 2: TAACGACATTACATACTTGTACACCTGA
Turning to B1, the activity was 8.9 fold with Mos-1 transposase ET [1] and 1.3 fold with Mos-1 transposase QY.

B2: ITR46 (dsDNA)
DNA 1: TCAGGTGTACAAGTATGAGATGTCGTTT
DNA 2: AAACGACATCTCATACTTGTACACCTGA
Regarding B2, the activity amounted to 6.7 fold with Mos-1 transposase ET [2], 19.4 fold with Mos-1 transposase FTY, 12.3 fold in the series with Mos-1 transposase FQET and 2.3 fold in the series with Mos-1 transposase FQETY.

The values above are taken from patent US20100291682, “SYSTEM FOR TRANSPOSING HYPERACTIVE RECOMBINANT DERIVATIVES OF MOS-1 TRANSPOSON” (published 2010).
